Consider 2 proteins from publication PMC6818471.

Data set [1] is described as follows: confocal immunofluorescence, HEK 293T. The following applies: glycan lost; control: wild type GLUT9b.
Data set [2] in a line: [14C]-urate uptake, oocytes co-expressing ITM2B. The following applies: glycan lost.
Data set [3] in a line: [14C]-urate uptake, oocytes co-expressing TMEM85. Particulars: glycan lost.
Data set [4] can be described thus: [14C]-urate uptake, polarized or depolarized oocytes. The following applies: glycan lost.

B1: GLUT9b: N61Q (protein)
parent chain: MKLSKKDRGEDEESDSAKKKLDWSCSLLVASLAGAFGSSFLYGYNLSVVNAPTPYIKAFYNESWERRHGRPIDPDTLTLLWSVTVSIFAIGGLVGTLIVKMIGKVLGRKHTLLANNGFAISAALLMACSLQAGAFEMLIVGRFIMGIDGGVALSVLPMYLSEISPKEIRGSLGQVTAIFICIGVFTGQLLGLPELLGKESTWPYLFGVIVVPAVVQLLSLPFLPDSPRYLLLEKHNEARAVKAFQTFLGKADVSQEVEEVLAESRVQRSIRLVSVLELLRAPYVRWQVVTVIVTMACYQLCGLNAIWFYTNSIFGKAGIPPAKIPYVTLSTGGIETLAAVFSGLVIEHLGRRPLLIGGFGLMGLFFGTLTITLTLQDHAPWVPYLSIVGILAIIASFCSGPGGIPFILTGEFFQQSQRPAAFIIAGTVNWLSNFAVGLLFPFIQKSLDTYCFLVFATICITGAIYLYFVLPETKNRTYAEISQAFSKRNKAYPPEEKIDSAVTDGKINGRP
Turning to B1, the localisation_or_trafficking entry in data set [1] was “no change”. In addition, the “other: inhibition of urate uptake by ITM2B, other: percent inhibition of uptake” value in data set [2] (control: wild type GLUT9b) is “no change, ∼65–70 vs 65–70”. In addition, the “other: inhibition of urate uptake by TMEM85” value in data set [3] (control: wild type GLUT9b) is “no change”. Besides, the “other: transport activity” value in data set [4] (control: wild type GLUT9b) is “no change”.

B2: GLUT9a: N90Q (protein)
parent chain: MARKQNRNSKELGLVPLTDDTSHAGPPGPGRALLECDHLRSGVPGGRRRKDWSCSLLVASLAGAFGSSFLYGYNLSVVNAPTPYIKAFYNESWERRHGRPIDPDTLTLLWSVTVSIFAIGGLVGTLIVKMIGKVLGRKHTLLANNGFAISAALLMACSLQAGAFEMLIVGRFIMGIDGGVALSVLPMYLSEISPKEIRGSLGQVTAIFICIGVFTGQLLGLPELLGKESTWPYLFGVIVVPAVVQLLSLPFLPDSPRYLLLEKHNEARAVKAFQTFLGKADVSQEVEEVLAESRVQRSIRLVSVLELLRAPYVRWQVVTVIVTMACYQLCGLNAIWFYTNSIFGKAGIPPAKIPYVTLSTGGIETLAAVFSGLVIEHLGRRPLLIGGFGLMGLFFGTLTITLTLQDHAPWVPYLSIVGILAIIASFCSGPGGIPFILTGEFFQQSQRPAAFIIAGTVNWLSNFAVGLLFPFIQKSLDTYCFLVFATICITGAIYLYFVLPETKNRTYAEISQAFSKRNKAYPPEEKIDSAVTDGKINGRP
On to B2, for which, in data set [2] (control: wild type GLUT9a), the “other: inhibition of urate uptake by ITM2B, other: percent inhibition of uptake” value is “no change, ∼65–70 vs 65–70”. For the same protein, the “other: inhibition of urate uptake by TMEM85” value in data set [3] (control: wild type GLUT9a) is given as “no change”. The “other: transport activity” value in data set [4] (control: wild type GLUT9a) is listed as “no change”.
